# Results from article PMC9849446, “Heating-mediated purification of active FGF21 and structure-based design of its variant with enhanced potency” (Scientific Reports, 2023).
# T1: Human β-Klotho (human, UniProt Q86Z14 1-996)
# T1 sequence (looked up): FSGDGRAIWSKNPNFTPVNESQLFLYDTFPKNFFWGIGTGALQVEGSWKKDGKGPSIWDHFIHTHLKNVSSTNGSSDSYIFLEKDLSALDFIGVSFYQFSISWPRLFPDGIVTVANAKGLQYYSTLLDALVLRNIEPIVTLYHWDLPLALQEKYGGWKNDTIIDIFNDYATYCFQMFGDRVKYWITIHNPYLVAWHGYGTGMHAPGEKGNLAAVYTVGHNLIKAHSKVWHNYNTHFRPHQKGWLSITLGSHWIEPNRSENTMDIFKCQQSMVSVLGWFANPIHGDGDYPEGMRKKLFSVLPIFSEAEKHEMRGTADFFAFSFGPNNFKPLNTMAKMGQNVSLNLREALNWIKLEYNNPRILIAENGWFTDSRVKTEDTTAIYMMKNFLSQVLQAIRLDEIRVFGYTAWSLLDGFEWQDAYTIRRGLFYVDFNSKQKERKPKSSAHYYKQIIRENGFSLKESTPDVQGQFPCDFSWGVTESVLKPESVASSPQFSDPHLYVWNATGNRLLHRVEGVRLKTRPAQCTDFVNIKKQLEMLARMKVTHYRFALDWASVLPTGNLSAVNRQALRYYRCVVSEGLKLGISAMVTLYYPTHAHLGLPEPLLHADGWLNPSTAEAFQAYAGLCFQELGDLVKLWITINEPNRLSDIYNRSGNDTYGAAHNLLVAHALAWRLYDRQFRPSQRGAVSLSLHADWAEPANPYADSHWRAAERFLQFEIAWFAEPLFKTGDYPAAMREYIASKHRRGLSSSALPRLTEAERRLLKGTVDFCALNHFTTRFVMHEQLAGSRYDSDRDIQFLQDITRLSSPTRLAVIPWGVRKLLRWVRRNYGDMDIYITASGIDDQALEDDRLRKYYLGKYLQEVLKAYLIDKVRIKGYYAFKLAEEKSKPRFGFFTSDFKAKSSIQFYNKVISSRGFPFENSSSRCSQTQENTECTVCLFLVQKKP
# Experiments:
# [1] = target: T1, Human β-Klotho; experiment: cell-based or functional assay
# [2] = target: T1, Human β-Klotho; experiment: SPR; Biacore 8K; FGF21s covalently immobilised on CM5 chip by amine coupling (about 700-900 RU); human β-Klotho injected as 2.5-fold series 250 to 1.024 nM at 30 μl/min; 25 °C; HBS-EP+ (10 mM HEPES pH 7.4, 150 mM NaCl, 3 mM EDTA, 0.05% polysorbate 20); global fit, 1:1 Langmuir model; conditions: both partners purified
Binder,"EC50 of FGFR1c/β-Klotho activation, luciferase reporter in modified HEK293 cells, 6 h [1] [ng/mL]",Kd [2] [nM],koff [2] [s⁻¹],kon [2] [M⁻¹ s⁻¹]
"htFGF21 variant with S195G, P199G, S200G, Q201H, and A208T mutations (htM5) (ligand, human, UniProt Q9NSA1 33-209, looked up, human FGF21 with S195G, P199G, S200G, Q201H and A208T; A Gly from the TEV site probably remains at the N-terminus (surmised); also called M5 variant; not shown: Trx, N-terminal, cleaved) DSSPLLQFGGQVRQRYLYTDDAQQTEAHLEIREDGTVGGAADQSPESLLQLKALKPGVIQILGVKTSRFLCQRPDGALYGSLHFDPEACSFRELLLEDGYNVYQSEAHGLPLHLPGNKSPHRDPAPRGPARFLPLPGLPPALPEPPGILAPQPPDVGSSDPLGMVGGGHGRSPSYTS",0.52,4.32,0.000707,164000
"htFGF21 variant with Q201H and A208T mutations (htM2) (ligand, human, UniProt Q9NSA1 33-209, looked up, human FGF21 with Q201H and A208T; A Gly from the TEV site probably remains at the N-terminus (surmised); not shown: Trx, N-terminal, cleaved) DSSPLLQFGGQVRQRYLYTDDAQQTEAHLEIREDGTVGGAADQSPESLLQLKALKPGVIQILGVKTSRFLCQRPDGALYGSLHFDPEACSFRELLLEDGYNVYQSEAHGLPLHLPGNKSPHRDPAPRGPARFLPLPGLPPALPEPPGILAPQPPDVGSSDPLSMVGPSHGRSPSYTS",1.37,10.9,0.0013,120000

# Other lines, results leading:
"EC50 of FGFR1c/β-Klotho activation, luciferase reporter in modified HEK293 cells, 6 h [1] [ng/mL]",Kd [2] [nM],koff [2] [s⁻¹],kon [2] [M⁻¹ s⁻¹],Binder
2.74,12.9,0.00155,121000,"wild type human FGF21 purified through heat treatment (htFGF21) (ligand, UniProt Q9NSA1 33-209, looked up, human fibroblast growth factor 21 (FGF21), residues 33-209; The TEV site ENLYFQ/G stood between Trx and FGF21, so a Gly probably remains before residue 33 after cleavage (surmised); also called htWT; wild type htFGF21; not shown: Trx, N-terminal, cleaved) DSSPLLQFGGQVRQRYLYTDDAQQTEAHLEIREDGTVGGAADQSPESLLQLKALKPGVIQILGVKTSRFLCQRPDGALYGSLHFDPEACSFRELLLEDGYNVYQSEAHGLPLHLPGNKSPHRDPAPRGPARFLPLPGLPPALPEPPGILAPQPPDVGSSDPLSMVGPSQGRSPSYAS"
0.75,5.19,0.000785,152000,"htFGF21 variant with S195G, P199G, and S200G mutations (htM3) (ligand, human, UniProt Q9NSA1 33-209, looked up, human FGF21 with S195G, P199G and S200G; A Gly from the TEV site probably remains at the N-terminus (surmised); not shown: Trx, N-terminal, cleaved) DSSPLLQFGGQVRQRYLYTDDAQQTEAHLEIREDGTVGGAADQSPESLLQLKALKPGVIQILGVKTSRFLCQRPDGALYGSLHFDPEACSFRELLLEDGYNVYQSEAHGLPLHLPGNKSPHRDPAPRGPARFLPLPGLPPALPEPPGILAPQPPDVGSSDPLGMVGGGQGRSPSYAS"
–,12.8,0.00159,126000,"wild type human FGF21 purified without heating (nFGF21) (ligand, UniProt Q9NSA1 33-209, looked up, human fibroblast growth factor 21 (FGF21), residues 33-209; differs only in that the 100 °C step was left out of the purification; The TEV site ENLYFQ/G stood between Trx and FGF21, so a Gly probably remains before residue 33 after cleavage (surmised); also called fibroblast growth factor 21; wild type FGF21; source: E. coli Rosetta (DE3), purified without heating; not shown: Trx, N-terminal, …) DSSPLLQFGGQVRQRYLYTDDAQQTEAHLEIREDGTVGGAADQSPESLLQLKALKPGVIQILGVKTSRFLCQRPDGALYGSLHFDPEACSFRELLLEDGYNVYQSEAHGLPLHLPGNKSPHRDPAPRGPARFLPLPGLPPALPEPPGILAPQPPDVGSSDPLSMVGPSQGRSPSYAS"
